Data reported in patent US5763271A, “Vasodilatory and immune suppressant peptides” (The President and Fellows of Harvard College, priority 1994, dated 1998).
Where no end group is shown, it is not given here.

Key:
[1] = test system: human macrophages; assay: H2O2 production by IFN-γ activated macrophages (scopoletin fluorometric assay); format: cell-based; conditions: 3 hrs preincubation, IFN-γ 200 units/ml, 3 days
Procedure: Monocytes obtained by leukophoresis of healthy volunteers were purified on Ficoll-hypaque and Percoll (Pharmacia, Piscataway, N.J.) gradients and placed into microtiter well (5×10^5 /well) in RPMI-1640 (GIBCO, Grand Island, N.Y.) with 5% pooled normal human serum and 1% gentamycin (M. A. Bioproducts, Walkinville, Md.). The cells were greater than 95% macrophages as judged by esterase staining. […] After one day in culture, non-adherent cells were rinsed away and the macrophages were treated, e.g., with human CGRP, Calcitonin, or LP as described below. Following treatment, the macrophages were incubated for three days with a concentration of from 100 to 400 units interferon gamma (Amgen Biologicals, Thousand Oaks, Calif.), in medium with 15% pooled normal human serum, at which time the H2 O2 concentration in the cells was determined.
H2 O2 production by macrophages was determined by fluorometric assay using the fluorophore scopoletin (de la Harpe et al., J. Immunol. Methods 78: 323 (1985)). […] The amount of H2 O2 released per culture is determined as nanomoles H2 O2. […]
Human macrophage monolayers were pretreated for three hours with varying concentrations of human CGRP. […] The amount Of H2 O2 produced by the cells was then determined according to the above procedure. […]

[2] = test system: RAW 264.7 cell line; assay: Inhibition of nitric oxide production by LPS-stimulated macrophages (Greiss reaction); format: cell-based; conditions: 10^6 to 10^1 pg/ml; LPS 1 μg/ml; nitrite 2 hours later
Procedure: Macrophage cells from the RAW 264.7 cell line (Drapier et al. (1988) J. Immunol. 140:2829) were preincubated with various concentrations of LP protein as indicated in FIG. 8. The cells were then stimulated with 1 μg/ml lipopolysaccharide […] (LPS) and NO production was monitored 2 hours later by measuring nitrite in the supernatants of the cultures. Nitrite was measured by the method described in Ding et al. (1988) J. Immunol. 141:2407. Briefly, levels of nitrite in the supernatants of the cultures were assessed by the Greiss reaction as follows. 50 μl cell culture supernatants were mixed with 50 μl of Greiss reagent [1% sulfanilamide, 0.1% N-(1-naphthyl)ethyl-enediamine dihydrochloride in 2.5% phosphoric acid] and incubated at room temperature for 10 minutes. Absorbance was measured at 570 nm. Concentration of NO2 in the supernatant was determined by comparison to a standard curve generated with dilutions of NaNO2.

[3] = test system: Leishmania major; assay: Exacerbation of cutaneous leishmaniasis (footpad lesion size); format: in vivo, CBA mice; conditions: 80 pg admixed with 10^5 L. major promastigotes, subcutaneous
Procedure: In order to assay for immunosuppressive activity, the recombinant LP protein described in subsection A above was tested for the ability to exacerbate infection of mice with Leishmania major substantially as described in Titus et al. (1988) Science 239, 1306 and Theodos et al. (1991) Infect. Immun. 59, 1592-1598.
Briefly, groups of 4 CBA mice each were injected subcutaneously in the footpad with 10^5 L. major promastigotes alone or 10^5 parasites admixed with 80 pg of LP protein. Lesion development was followed by measuring the increase in thickness of the injected footpad compared to the thickness of the contralateral uninjected control footpad.

Row | Molecule | inhibition of H2O2 production by macrophages [1] | NO production by macrophages preincubated with the protein [2] | effect on Leishmania infection (size of footpad lesions) [3]
1 | calcitonin (CGNLSTCMLGTYTQDFNKFHTFPQTAIGVGAP; ends and bridges not checked; cysteine pairing not given here; UniProt P01258 85-116, looked up) [neuropeptide derived from the same gene as CGRP, available commercially] | to a degree similar to that seen with CGRP | – | –
2 | recombinant LP protein: LP protein, substantially the amino acid sequence of SEQ ID NO:4, expressed in E. coli as a polyHis fusion protein (protein, polyHis tag) MKYSLNNLHFLVDVAEGCDATCQFRKAIEDCRKKAHHSDVLQTSVQTTATFTSMDTSQLPGSGVFKECMKEKAKEFKAGK | – | significant decrease | greatly exacerbated
